From publication PMC6401066, “A dynamically interacting flexible loop assists oligomerisation of the Caenorhabditis elegans centriolar protein SAS-6” (Scientific Reports, 2019)

Tests used:
[1] = biological target: SAS-6 coiled coil (CC interface) (Caenorhabditis elegans) (UniProt O62479); settings: cited from earlier work
[2] = biological target: the molecule itself; assay: SEC; analytical SEC, Superdex 75 10/300 GL, PBS (20 mM sodium phosphate pH 7.0, 150 mM NaCl, 2 mM DTT); different protein concentrations, up to 10 mg/ml; self-association
FP = biological target: the molecule itself; assay: FP
[3] = biological target: the molecule itself; assay: fluorescence polarisation; 1,5-IAEDANS on C100 of CeSAS-6N; polarisation against protein concentration in PBS; fit of an ideal self-association model; monomer to NN dimer; three independent experiments

SAS-6 coiled coil (CC interface) (from UniProt O62479)
Kd [1]: 1 µM

B1: CeSAS-6N-CC Δ103–130 (domain or fragment, C. elegans, UniProt O62479 1-215, looked up)
chain: MTSKIALFDQTLIASLLQPLSLNQPDFKAYKTKVKLKISEQRNETSGEKELKFEISRSDDFEFLFSETLNNEKYQILARDHDLTVDFDAFPKVIIQHLLCKNTEINIILDAEKNFCSFELFSKTPISKGKIFSIKLHAVRGDHLISHLLKICSSQAVKLSTFYKSADELASLRQKCGDLEKQVEKLS
notes: source: E. coli BL21 (DE3), purified (His-Trap HP, thrombin cleavage, Sephadex G75 SEC); not shown: His6, N-terminal, cleaved
stoichiometry N [2]: 2

B2: C. elegans SAS-6 N-terminal domain plus a short stretch of the coiled coil, wild type (CeSAS-6N-CC WT, amino acids 1-215) (domain or fragment, UniProt O62479 1-215, looked up)
chain: MTSKIALFDQTLIASLLQPLSLNQPDFKAYKTKVKLKISEQRNETSGEKELKFEISRSDDFEFLFSETLNNEKYQILARDHDLTVDFDAFPKVIIQHLLCKNIVKNLEEDGEVDARKKAGYHSIADPGKPTEINIILDAEKNFCSFELFSKTPISKGKIFSIKLHAVRGDHLISHLLKICSSQAVKLSTFYKSADELASLRQKCGDLEKQVEKLS
notes: SAS-6, C. elegans, N-terminal domain plus a short stretch of the coiled coil, amino acids 1-215; Forms a dimer through the coiled coil (calculated mass of the dimer 48.8 kDa) that assembles further through the NN interface; also called WT CeSAS-6_(N-CC); source: E. coli BL21 (DE3), purified (His-Trap HP, thrombin cleavage, Sephadex G75 SEC); not shown: His6, N-terminal, cleaved
binding result [2]: binds

B3: CeSAS-6N S123E variant (domain or fragment, C. elegans, UniProt O62479 1-168, looked up)
chain: MTSKIALFDQTLIASLLQPLSLNQPDFKAYKTKVKLKISEQRNETSGEKELKFEISRSDDFEFLFSETLNNEKYQILARDHDLTVDFDAFPKVIIQHLLCKNIVKNLEEDGEVDARKKAGYHEIADPGKPTEINIILDAEKNFCSFELFSKTPISKGKIFSIKLHAVR
modifications: 1,5-IAEDANS conjugated to C100 (fluorescence polarisation samples)
notes: SAS-6, C. elegans, N-terminal domain, amino acids 1-168, with S123E; source: E. coli BL21 (DE3), purified (His-Trap HP, thrombin cleavage, Sephadex G75 SEC); not shown: His6, N-terminal, cleaved
Kd (FP): 48 µM | fold increase of NN affinity against CeSAS-6N WT [3]: ~2 fold

B4: C. elegans SAS-6 N-terminal domain, wild type (CeSAS-6N WT, amino acids 1-168) (domain or fragment, UniProt O62479 1-168, looked up)
chain: MTSKIALFDQTLIASLLQPLSLNQPDFKAYKTKVKLKISEQRNETSGEKELKFEISRSDDFEFLFSETLNNEKYQILARDHDLTVDFDAFPKVIIQHLLCKNIVKNLEEDGEVDARKKAGYHSIADPGKPTEINIILDAEKNFCSFELFSKTPISKGKIFSIKLHAVR
modifications: 1,5-IAEDANS conjugated to C100 (fluorescence polarisation samples)
notes: spindle assembly abnormal protein 6 (SAS-6), C. elegans, N-terminal domain, amino acids 1-168; Samples for NMR were isotopically labelled (15N) and carried no fluorophore; also called WT CeSAS-6N; source: E. coli BL21 (DE3), purified (His-Trap HP, thrombin cleavage, Sephadex G75 SEC); not shown: His6, N-terminal, cleaved
Kd [3]: ~100 µM
